Target: T1, RVFV glycoprotein Gn head domain (154–469 aa) (Rift Valley fever virus), P21401
T1 chain: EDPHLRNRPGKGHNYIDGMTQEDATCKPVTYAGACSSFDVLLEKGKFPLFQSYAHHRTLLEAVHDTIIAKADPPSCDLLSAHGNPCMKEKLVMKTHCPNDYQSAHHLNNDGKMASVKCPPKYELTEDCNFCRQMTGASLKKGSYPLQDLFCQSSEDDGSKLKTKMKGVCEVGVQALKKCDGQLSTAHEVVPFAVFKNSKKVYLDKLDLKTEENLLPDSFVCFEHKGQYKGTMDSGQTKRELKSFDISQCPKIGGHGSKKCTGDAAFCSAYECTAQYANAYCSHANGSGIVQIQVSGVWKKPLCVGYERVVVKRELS
Test: BLI
Details: modification not given

**Q.** With HVCLPSQFKCTNTNRCIPGIFRCNGQDNCGDGEDERDCPE [23-Fc] as the binder, how does the Kd read?
**A.** 260 nM

Reference: publication PMC12839305
